Measured values published in paper doi:10.1101/2025.10.27.684738.

What was measured:
ANXA11 Nt = ANXA11 Nt (UniProt P50995 1-191); experiment: MST
ANXA11 Ct = biological target: T1, ANXA11 Ct (UniProt P50995 201-505); experiment: MST
T1 sequence: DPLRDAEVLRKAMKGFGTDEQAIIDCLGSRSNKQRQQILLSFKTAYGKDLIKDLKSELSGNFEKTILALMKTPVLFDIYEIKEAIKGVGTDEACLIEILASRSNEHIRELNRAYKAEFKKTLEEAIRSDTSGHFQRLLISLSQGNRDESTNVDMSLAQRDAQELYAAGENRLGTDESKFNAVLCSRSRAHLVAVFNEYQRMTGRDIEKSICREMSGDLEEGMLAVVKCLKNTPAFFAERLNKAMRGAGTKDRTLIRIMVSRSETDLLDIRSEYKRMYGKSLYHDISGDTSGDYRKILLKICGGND

ANXA11 Nt, sequence (P50995 1-191): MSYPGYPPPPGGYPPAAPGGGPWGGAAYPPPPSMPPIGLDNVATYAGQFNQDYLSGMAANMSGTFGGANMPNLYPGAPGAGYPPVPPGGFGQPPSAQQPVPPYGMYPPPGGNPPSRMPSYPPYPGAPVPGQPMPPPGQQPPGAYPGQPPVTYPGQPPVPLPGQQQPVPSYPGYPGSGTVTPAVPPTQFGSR

B1: poly-U 10-mer RNA (ssRNA)
RNA: UUUUUUUUUU
Work on B1 yielded a Kd (ANXA11 Nt) of 4.18 ± 0.8 µM and a Kd (ANXA11 Ct) of 3.55 ± 0.3 µM.
